Data on two molecules can be found in patent US20130060011A1 (published 2013).

Test [1] has as its target human MCSP (human, UniProt Q6UVK1 30-2322). Put plainly: cell-based or functional assay.
Test [2] deals with human CD3 (human, UniProt P07766 23-207). Description: cell-based or functional assay.
human CD3, sequence (P07766 23-207): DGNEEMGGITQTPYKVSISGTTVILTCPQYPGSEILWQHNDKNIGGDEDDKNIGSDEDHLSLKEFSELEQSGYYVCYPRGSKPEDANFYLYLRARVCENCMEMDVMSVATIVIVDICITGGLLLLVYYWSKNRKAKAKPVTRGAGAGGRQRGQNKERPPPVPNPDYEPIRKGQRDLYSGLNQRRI

human MCSP, sequence (Q6UVK1 30-2322): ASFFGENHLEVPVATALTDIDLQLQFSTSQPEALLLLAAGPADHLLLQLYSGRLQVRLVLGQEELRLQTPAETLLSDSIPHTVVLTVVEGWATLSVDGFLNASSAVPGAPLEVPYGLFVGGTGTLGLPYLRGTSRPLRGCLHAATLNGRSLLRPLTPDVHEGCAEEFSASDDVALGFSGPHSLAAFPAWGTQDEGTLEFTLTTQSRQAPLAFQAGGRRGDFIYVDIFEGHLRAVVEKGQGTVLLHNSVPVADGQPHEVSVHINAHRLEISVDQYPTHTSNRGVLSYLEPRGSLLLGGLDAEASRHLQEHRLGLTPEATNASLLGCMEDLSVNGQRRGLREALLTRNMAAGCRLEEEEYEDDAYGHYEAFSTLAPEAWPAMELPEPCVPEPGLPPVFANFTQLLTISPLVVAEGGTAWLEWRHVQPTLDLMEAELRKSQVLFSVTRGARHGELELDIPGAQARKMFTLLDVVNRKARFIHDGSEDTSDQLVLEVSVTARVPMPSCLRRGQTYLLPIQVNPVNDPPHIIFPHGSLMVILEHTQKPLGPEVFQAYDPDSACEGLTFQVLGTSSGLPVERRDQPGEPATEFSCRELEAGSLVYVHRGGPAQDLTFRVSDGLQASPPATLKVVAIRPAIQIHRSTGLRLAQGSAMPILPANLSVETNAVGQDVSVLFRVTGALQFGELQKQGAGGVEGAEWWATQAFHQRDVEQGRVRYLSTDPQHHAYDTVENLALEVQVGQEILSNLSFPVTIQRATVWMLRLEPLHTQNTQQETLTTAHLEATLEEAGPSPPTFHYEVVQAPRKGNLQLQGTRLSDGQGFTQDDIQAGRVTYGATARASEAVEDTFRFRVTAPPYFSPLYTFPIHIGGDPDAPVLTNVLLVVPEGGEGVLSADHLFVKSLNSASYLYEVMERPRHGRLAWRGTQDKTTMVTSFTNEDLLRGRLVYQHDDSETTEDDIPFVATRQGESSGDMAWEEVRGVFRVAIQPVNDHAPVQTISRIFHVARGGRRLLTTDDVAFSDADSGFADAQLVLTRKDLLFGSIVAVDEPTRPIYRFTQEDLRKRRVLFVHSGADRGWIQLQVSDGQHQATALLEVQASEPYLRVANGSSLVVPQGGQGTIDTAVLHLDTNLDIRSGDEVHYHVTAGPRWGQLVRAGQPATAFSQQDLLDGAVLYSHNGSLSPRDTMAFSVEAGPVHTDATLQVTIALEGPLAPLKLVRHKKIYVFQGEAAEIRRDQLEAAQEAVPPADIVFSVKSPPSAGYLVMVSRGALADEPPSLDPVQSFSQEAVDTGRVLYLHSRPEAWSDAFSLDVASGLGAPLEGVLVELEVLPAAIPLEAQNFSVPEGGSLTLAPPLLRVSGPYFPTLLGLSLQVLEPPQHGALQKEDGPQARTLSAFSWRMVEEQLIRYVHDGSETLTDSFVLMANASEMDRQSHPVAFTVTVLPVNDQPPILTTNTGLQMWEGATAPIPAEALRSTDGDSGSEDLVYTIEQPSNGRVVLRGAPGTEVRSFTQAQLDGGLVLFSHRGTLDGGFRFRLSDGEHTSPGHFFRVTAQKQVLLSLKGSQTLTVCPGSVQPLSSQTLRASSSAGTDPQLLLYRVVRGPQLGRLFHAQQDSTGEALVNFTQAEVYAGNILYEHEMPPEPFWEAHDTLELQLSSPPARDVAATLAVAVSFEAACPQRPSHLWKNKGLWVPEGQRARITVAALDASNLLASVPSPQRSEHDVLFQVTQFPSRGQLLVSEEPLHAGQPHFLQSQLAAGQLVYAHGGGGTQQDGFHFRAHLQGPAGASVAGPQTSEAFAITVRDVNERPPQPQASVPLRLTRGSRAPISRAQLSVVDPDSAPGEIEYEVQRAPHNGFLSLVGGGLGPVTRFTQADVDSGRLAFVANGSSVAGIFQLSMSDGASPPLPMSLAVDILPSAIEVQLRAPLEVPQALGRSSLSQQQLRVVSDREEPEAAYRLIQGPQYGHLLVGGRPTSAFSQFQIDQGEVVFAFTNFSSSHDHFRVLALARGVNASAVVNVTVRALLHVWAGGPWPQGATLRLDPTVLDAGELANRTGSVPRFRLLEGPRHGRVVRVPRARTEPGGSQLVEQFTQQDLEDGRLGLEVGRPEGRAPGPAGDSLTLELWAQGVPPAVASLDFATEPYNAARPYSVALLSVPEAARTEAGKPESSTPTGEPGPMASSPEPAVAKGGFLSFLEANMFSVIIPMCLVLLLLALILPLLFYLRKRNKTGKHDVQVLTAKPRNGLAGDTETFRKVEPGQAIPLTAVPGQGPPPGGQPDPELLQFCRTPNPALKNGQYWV

B1: (scFv)2 (antiMCSP/anti huCD3e) (bispecific antibody)
scFv: DIVLTQSPSSLSASLGDRVTISCSASQGIRNYLNWYQQRPDGTVKLLIYYTSSLHSGVPSRFSGSGSGTDYSLTISNLEPEDIATYYCQQYSKLPWTFGGGTKLEIKGGGGSGGGGSGGGGSEVQLQESGPGLVKPSQSLSLTCSVTGYSITSGYYWNWIRQFPGNKLEWMGYITYDGSNNYNPSLKNRISITRDTSKNQFFLKLNSVTTEDTATYYCADFDYWGQGTTLTVSSGGGGSEVQLVESGGGLVQPGGSLRLSCAASGYSFTGYTMNWVRQAPGKGLEWVALINPYKGVSTYNQKFKDRFTISVDKSKNTAYLQMNSLRAEDTAVYYCARSGYYGDSDWYFDVWGQGTLVTVSSVEGGSGGSGGSGGSGGVDDIQMTQSPSSLSASVGDRVTITCRASQDIRNYLNWYQQKPGKAPKLLIYYTSRLESGVPSRFSGSGSGTDYTLTISSLQPEDFATYYCQQGNTLPWTFGQGTKVEIKHHHHHH
On to B1, for which the “Killing (as measured by LDH release) of MV-3 tumor cells upon co-culture with human PBMCs (E:T ratio=10:1), 24 hours; EC50” value in test [1] and in test [2] was 0.057 nM in each case.

B2: hu Fab (MCSP)-Crossfab (CD3) (bispecific antibody)
heavy: EVQLQESGPGLVKPSQSLSLTCSVTGYSITSGYYWNWIRQFPGNKLEWMGYITYDGSNNYNPSLKNRISITRDTSKNQFFLKLNSVTTEDTATYYCADFDYWGQGTTLTVSSASTKGPSVFPLAPSSKSTSGGTAALGCLVKDYFPEPVTVSWNSGALTSGVHTFPAVLQSSGLYSLSSVVTVPSSSLGTQTYICNVNHKPSNTKVDKKVEPKSCDGGGGSGGGGSDIQMTQSPSSLSASVGDRVTITCRASQDIRNYLNWYQQKPGKAPKLLIYYTSRLESGVPSRFSGSGSGTDYTLTISSLQPEDFATYYCQQGNTLPWTFGQGTKVEIKSSASTKGPSVFPLAPSSKSTSGGTAALGCLVKDYFPEPVTVSWNSGALTSGVHTFPAVLQSSGLYSLSSVVTVPSSSLGTQTYICNVNHKPSNTKVDKKVEPKSC
light: DIVLTQSPSSLSASLGDRVTISCSASQGIRNYLNWYQQRPDGTVKLLIYYTSSLHSGVPSRFSGSGSGTDYSLTISNLEPEDIATYYCQQYSKLPWTFGGGTKLEIKRTVAAPSVFIFPPSDEQLKSGTASVVCLLNNFYPREAKVQWKVDNALQSGNSQESVTEQDSKDSTYSLSSTLTLSKADYEKHKVYACEVTHQGLSSPVTKSFNRGEC
chain: EVQLVESGGGLVQPGGSLRLSCAASGYSFTGYTMNWVRQAPGKGLEWVALINPYKGVSTYNQKFKDRFTISVDKSKNTAYLQMNSLRAEDTAVYYCARSGYYGDSDWYFDVWGQGTLVTVSSASVAAPSVFIFPPSDEQLKSGTASVVCLLNNFYPREAKVQWKVDNALQSGNSQESVTEQDSKDSTYSLSSTLTLSKADYEKHKVYACEVTHQGLSSPVTKSFNRGEC
For B2, the “Killing (as measured by LDH release) of MV-3 tumor cells upon co-culture with human PBMCs (E:T ratio=10:1), 24 hours; EC50” value in test [1] and in test [2] was 0.0254 nM throughout.
